Laboratory results: PMC7308587

What was measured:
[1] = target: PpPIIa, recombinant mature protein (without the chloroplast transit peptide) (Pinus pinaster (maritime pine)); assay: SEC; ENrich SEC 650 10 x 300 column (FPLC), 250 uL of protein at 0.6 ug/uL in 25 mM Tris-HCl pH 7.5, 150 mM NaCl, 10% glycerol, room temperature, 0.75 mL/min; calibrated with protein standards; fractions checked by western blot
[2] = target: PpNAGK, recombinant mature N-acetylglutamate kinase (301 residues without cTP) fused to a His-tag (Pinus pinaster (maritime pine))
[3] = target: PpPIIb, recombinant mature protein (without the chloroplast transit peptide) (Pinus pinaster (maritime pine)); assay: SEC; ENrich SEC 650 10 x 300 column (FPLC), 250 uL of protein at 0.6 ug/uL in 25 mM Tris-HCl pH 7.5, 150 mM NaCl, 10% glycerol, room temperature, 0.75 mL/min; calibrated with protein standards; fractions checked by western blot

stoichiometry N [1]	PpNAGK enzyme activity (N-acetylglutamylhydroxamate assay) with increasing amounts of PpPIIa mixed with 0.65 ug PpNAGK [2] [fold]	stoichiometry N [3]	PpNAGK enzyme activity (N-acetylglutamylhydroxamate assay) with increasing amounts of PpPIIb mixed with 0.65 ug PpNAGK [2] [fold]	Substance
3	5	–	–	PpPIIa, recombinant mature protein (without the chloroplast transit peptide) (natural protein)
–	–	3	5	PpPIIb, recombinant mature protein (without the chloroplast transit peptide) (natural protein)
